From the supplement of paper PMC9170038

System: MS2 coat protein
Experiment: apparent KD of MS2 coat protein; designed switch direction (-1 OFF switch, 1 ON switch): -1; higher = weaker reporter binding
Outline: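 Three titration conditions were used: no input, 200 uM small-molecule ligand, and an oligonucleotide input. In each, SNAP-549-labelled MS2 coat protein was raised from 0.7 or 1.5 nM, doubling, to 3 µM over designed RNA switches transcribed on Illumina chips by stalled E. coli RNA polymerase. Curve fits of normalised cluster fluorescence gave values whose per-design median over clusters is the apparent KD.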

[1] = Eterna round: R95, input ligand: FMN 200 uM
[2] = Eterna round: R95, input ligand: microRNA oligo, concentration not stated
[3] = Eterna round: R95, input ligand: none
[4] = input ligand: microRNA oligo, concentration not stated

Sequence	apparent KD of MS2 coat protein [1] [nM]	apparent KD of MS2 coat protein [2] [nM]	apparent KD of MS2 coat protein [3] [nM]	apparent KD of MS2 coat protein (input ligand: FMN 200 uM) [nM]	apparent KD of MS2 coat protein (input ligand: none) [nM]	apparent KD of MS2 coat protein [4] [nM]
GAGGUGUUAGGAUAUCGGAGAUGGAGACCAACGGGAUGAGCCGAGAAGGAACAUGAGGAUCACCCAUGUAGGUG [JR_Exclu4_Sub032] (puzzle: Exclusion 4)	345	755	763			
GAGUAGUAAGGAUAUGUCUCUGGUGGCUACGGUCACUAGAGGCAGAAGGUACAUGAGGAUCACCCAUGUUCCUC [ExDelusion 8 - Jieux - Exclusion 4] (Eterna round: R97, puzzle: Exclusion 4)				186	55.8	
GAGUGACAUGAGGAUCACCCAUGUGAGGAUAUCGGACGGACCAAAUUAACAACAAACGCGAGAAGGCACAUCGG [Exclusion 1 V19] (puzzle: Exclusion 1)		74.9				
GAGUGACAUGAGGAUCACCCAUGUGAGGAUAUCGGACGGACCAAAUUAACAAUAAAUGCGAGAAGGCACAUCGG [Exclusion 1 V13] (puzzle: Exclusion 1)		55.4				
GAGUGACAUGAGGAUCACCCAUGUGAGGAUAUCGGACGGACCAAAUUAACAAUAAUUGCGAGAAGGCACAUCGG [Exclusion 1 V14] (puzzle: Exclusion 1)		52.1				
GAGUGACAUGAGGAUCACCCAUGUGAGGAUAUCGGACGGACCUUGUUGGCUUCCGCCGCGAGAAGGCACCUCGG [Exclusion 1 V27] (puzzle: Exclusion 1)		32.5				
GAGUGAUGAGGAUAUACAUGAGGAUCACCCAUGUGCUUCAGCUAGGAGACUAGCAUUGGUAGAAGGCAUUACUC [Mod of lroppy 7 - Jieux - Exclusion 3] (Eterna round: R97, puzzle: Exclusion 3)				90.1	15.8	
GAGUGCUGAGGAUAUACAUGAGGAUCACCCAUGUGCUUCAGCUAGGAGACUAGCAUCCGUAGAAGGCAGUACUC [Mod of lroppy 24 - Jieux - Exclusion 3] (Eterna round: R97, puzzle: Exclusion 3)				37.5	14.3	
GAGUUAGCGUGUGGAAUAUACAUGAGGAUCACCCAUGUUAGCUUAUAUAUUGCUCGUCUUAUAACAACACUUAACUG [Mod JX-Electric-eye4] (Eterna round: R97, puzzle: Sensor, turn-off variant 1)				42.7	45.8	
GAUAGAGAGCAGGAUAUCUUGGAUAAGUAUAGUAGAGAAGGGCUCACAUGAGGAUCACCCAUGUGGUCCAAGAU [JL Dibiri mod 12] (puzzle: Exclusion 6)	28	14.8	15.8			
GAUAGUGGAGGAUAUACAUGAGGAUCACCCAUGUGAAGUUGCGUAAGUGACCCUUCCUGUAGAAGGCCAAGCAA [Eternabot (Original) Solution 31] (Eterna round: R97, puzzle: Exclusion 3)				256	31.9	
GAUCAACAUGAGGAUCACCCAUGUGAGGAUAUGAUACUAUGUACUUCGGUACAUAGUAUCAGAAGGCACUAGGA [Ex1-3: 40] (puzzle: Exclusion 1)		64				
GAUCAUGCAGGAUAUGCAGUAACCAUGAAAACAUGGUUGCAACAUGAGGAUCACCCAUGUAGAAGGGCAUGAUC [Omei Ex2 A3] (Eterna round: R97, puzzle: Exclusion 2)				10.8	13.9	
GAUCCACAUGAGGAUCACCCAUGUGAGGAUAUGAUACUAUGUACUUCGGUACAUAGUAUCAGAAGGCACGGAUC [Ex1-3: 54] (puzzle: Exclusion 1)		24.6				
GAUCCGUUAGGAUAUCGUGAGGACAGCUAGUCUUAUUAACACGAGAAGGAACAUGAGGAUCACCCAUGUGGUAA [Eternabot (L1) Solution 14] (Eterna round: R97, puzzle: Exclusion 4)				279	62.3	
GAUCGACAUGAGGAUCACCCAUGUCAGGAUAUCGUCACUGGAGCCUCGGCUCCAGUGACGAGAAGGGACAUAAU [E1/13-A2] (Eterna round: R97, puzzle: Exclusion 1)				46.8	39.4	
GAUGGACAUGAGGAUCACCCAUGUAAGGAUAUUGUUUGUGGCUAGUUUUGGUUACGGGCGAGAAGGUACUCGUC [-19.7, -16.7 kcal, A 23%] (Eterna round: R97, puzzle: Exclusion 1)				39.7	47.7	
GAUGUGGGUUUUCAGAGUAACAUGAGGAUCACCCAUGUAGAAGUUGGAGGGAUCAAGCUUUUUGGUCGUCAUAUGUG [JR_SV3TOV1_Sub051] (Eterna round: R96, puzzle: Sensor v3, turn-off variant 1)				603	588	358

Sequence	apparent KD of MS2 coat protein [1] [nM]	apparent KD of MS2 coat protein [2] [nM]	apparent KD of MS2 coat protein [3] [nM]	apparent KD of MS2 coat protein (input ligand: FMN 200 uM) [nM]	apparent KD of MS2 coat protein (input ligand: none) [nM]	apparent KD of MS2 coat protein [4] [nM]
GAUGUGGGUUUUCAGAGUAACAUGAGGAUCACCCAUGUAGAAGUUGGAGGGAUCAAGCUUUUUGGUCGUCAUAUGUG [JR_SV3TOV1_Sub051] (puzzle: Sensor v3, turn-off variant 1)	442	511	509			
GAUUAACAAGCGAGAUCCCACAUGAGGAUCACCCAUGUGCUCGUCUUAUAAGGUACUGUGACGAAAGUCACGGUACC [Mat - Sensor, turn-off var - Eli Mod - D5] (Eterna round: R97, puzzle: Sensor, turn-off variant 1)				13.5	15.2	
GAUUAACAUGAGGAUCACCCAUGUGAGGAUAUGGACUUGCCCACUUAACCAUUAGAGUCUAGAAGGCGCAUCUG [1986#25] (Eterna round: R97, puzzle: Exclusion 1)				32.9	29.8	
GAUUAUGCAGGCUUUAGGGACAUGAGGAUCACCCAUGUUCGUCUUAUUGAUCUAGGUACGCUGACGUACCUAGAUCU [JL-sv1-2.34 Brourd mod] (puzzle: Sensor v3, turn-off variant 1)	19.3	42.5	20.4			
GAUUAUGCGAGCUUUAGGGACAUGAGGAUCACCCAUGUUCGUCUUAUUAGUCUAGGUACGCUAACAUACCUAAAUCU [JMF 40] (puzzle: Sensor v3, turn-off variant 1)	20.2	35.9	22.8			
GAUUAUGCGAGCUUUAGGGACAUGAGGAUCACCCAUGUUCGUCUUAUUAGUCUAGGUGCACUGACAUACCUAAAUCU [JMF 90] (puzzle: Sensor v3, turn-off variant 1)	19.1	26.1	18.3			
GAUUAUGCGAGCUUUAGGGACAUGAGGAUCACCCAUGUUCGUCUUAUUGAUCUAGGUGCACUAACAUACCUAAAUCU [JMF 34] (puzzle: Sensor v3, turn-off variant 1)	24	41.2	27.7			
GAUUAUGCGAGCUUUAGGGACAUGAGGAUCACCCAUGUUCGUCUUAUUGGUCUAAGUGCACUGACAUACCUAAAUCU [JMF 84] (puzzle: Sensor v3, turn-off variant 1)	20.2	31.5	19.6			
GAUUAUGCGAGCUUUAGGGACAUGAGGAUCACCCAUGUUCGUCUUAUUGGUCUGAAUGCACUAACAUACCUAAAUCU [JMF 24] (puzzle: Sensor v3, turn-off variant 1)	26.2	37	24.8			
GAUUAUGCGAGCUUUAGGGACAUGAGGAUCACCCAUGUUCGUCUUAUUGGUCUGAGUACACUAACAUACCUAAAUCU [JMF 15] (puzzle: Sensor v3, turn-off variant 1)	18.3	26.4	20.3			
GAUUGACAUGAGGAUCACCCAUGUGAGGAUAUCGGCCGGACCUUGUUAGCUUCCACCGCGAGAAGGCACAUAGG [Exclusion 1 V31] (puzzle: Exclusion 1)		25.3				
GAUUGACAUGAGGAUCACCCAUGUGAGGAUAUCGGCUGGACCGUGUUGGCGUGCCUCUCGAGAAGGCGCAUAGG [Exclusion 1 V54] (puzzle: Exclusion 1)	64.8	39.9	51.3			
GAUUGACAUGAGGAUCACCCAUGUGAGGAUAUCGGCUGGACCGUGUUGGCUUGCUUCUCGAGAAGGCGCAUAGG [Exclusion 1 V51] (puzzle: Exclusion 1)	32.7	33.9	36			
GAUUGACAUGAGGAUCACCCAUGUGAGGAUAUCGGCUGGACCGUGUUGGCUUGCUUUUCGAGAAGGCGCAUAGG [Exclusion 1 V49] (puzzle: Exclusion 1)	55	36.8	35			
GAUUGAGAGCAGGAUAUCUUAGAAAUGUAUUAAAGAGAAGGGCUCACAUGAGGAUCACCCAUGUGGUCCUAGAU [JL Dibiri mod 16] (Eterna round: R96, puzzle: Exclusion 6)				306	26.3	22.8
GAUUGAGAGCAGGAUAUCUUAGAAAUGUAUUAAAGAGAAGGGCUCACAUGAGGAUCACCCAUGUGGUCCUAGAU [JL Dibiri mod 16] (puzzle: Exclusion 6)		20.8				
GCAAGACGAGGAUAUUGAGAAGGGAACAUGAGGAUCACCCAUGUGGUGGUUUCGACCGGUCGAGAAGGCGUAGAAC [EX5 B.6] (Eterna round: R97, puzzle: Exclusion 5)				1150	957	
